Measured values reported in patent US11814447B2, “Peptide ligands for binding to EphA2” (BICYCLERD LIMITED, priority 2018, dated 2023).
Starred links: 1 amine or outer side, 2 acyl side, 3 side chain; linkers in the order of their positions; H or OH if unused. Positions of bridges follow the written chain, without caps; N, C: chain ends. Non-standard residues stand in square brackets, D forms with d. Primed or numbered codes have the meaning given here. No end group written: not given here. TBMB′ = 1,3,5-tris(bromomethyl)benzene, 1,3,5-tris(methylene)benzene core, three thioethers to Cys; TATA = O=C(CC[*:1])N1CN(C(=O)CC[*:2])CN(C(=O)CC[*:3])C1; 2Nal = N[C@@H](Cc1ccc2ccccc2c1)C(=O)O; TBMB = c1c(C[*:1])cc(C[*:3])cc1C[*:2]; Pip = O=C(O)[C@@H]1CCCCN1; Aib = CC(C)(N)C(=O)O; Sar = CNCC(=O)O

target: T1, Human EphA2 (Ecto), C-terminal polyHis (Human, UniProt P29317 24-537); assay: fluorescence polarisation competition; competitor fluorescent Compound 66
T1 construct: extracellular domain; also called EPH receptor A2; ephrin type-A receptor 2
T1 sequence (P29317 24-537): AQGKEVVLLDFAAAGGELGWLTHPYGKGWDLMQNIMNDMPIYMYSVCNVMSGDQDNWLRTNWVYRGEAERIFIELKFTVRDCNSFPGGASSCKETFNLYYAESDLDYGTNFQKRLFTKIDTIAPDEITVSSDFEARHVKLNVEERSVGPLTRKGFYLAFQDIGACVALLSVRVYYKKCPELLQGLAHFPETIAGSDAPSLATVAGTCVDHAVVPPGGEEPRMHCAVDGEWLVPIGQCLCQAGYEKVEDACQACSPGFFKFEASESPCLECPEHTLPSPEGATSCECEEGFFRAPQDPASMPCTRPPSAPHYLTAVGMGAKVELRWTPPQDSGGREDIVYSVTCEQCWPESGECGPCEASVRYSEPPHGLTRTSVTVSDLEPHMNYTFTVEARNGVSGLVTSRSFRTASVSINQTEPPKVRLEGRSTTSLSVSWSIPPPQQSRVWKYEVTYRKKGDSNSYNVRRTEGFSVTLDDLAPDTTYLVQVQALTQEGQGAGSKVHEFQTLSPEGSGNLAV
Method: (§1) Peptides without a fluorescent tag were tested in competition with a peptide with a fluorescent tag and a known Kd (Table 2). Peptides were diluted to an appropriate concentration in assay buffer as described in the direct binding assay with a maximum of 5% DMSO, then serially diluted 1 in 2. […] Measurements were conducted as for the direct binding assay, however the gain was determined prior to the first measurement. Data analysis was in Systat Sigmaplot version 12.0 where the mP values were fit to a user defined cubic equation to generate a Ki value: […]

| Ki | Binder |
| --- | --- |
| 497 nM | [Sar][Sar]ACPWG[Pip]FWCPVNRPGC (linker 4-11-18 via TBMB′, also called Compound 82) [Bicycle Compound Number 82 (TBMB scaffold)] |
| 95.8 nM | ACPWGPMWCPVNRPGCA (linker 2-9-16 via TBMB (inferred), also called Compound 46) [Bicycle Compound Number 46 (TBMB scaffold)] |
| 458 nM | [Sar][Sar]ACP[2Nal]GPFWCPVNRPGC (linker 4-11-18 via TBMB, also called Compound 77) [Bicycle Compound Number 77 (TBMB scaffold)] |
| 139 nM | [Sar][Sar]AC[Aib]WGPFWCPVNRPGC (linker 4-11-18 via TBMB, also called Compound 74) [Bicycle Compound Number 74 (TBMB scaffold)] |

target: T2, Human EphA2 (Ecto) (Human, UniProt P29317 24-537); assay: FP competition; tracer Reference Compound C
T2 construct: extracellular domain; in-house)
T2 sequence (P29317 24-537): as above
Method: as §1

| Binder | Ki |
| --- | --- |
| ACPLVNPLCLHPG[2Nal]SCRGQ (linker 2-9-16 via TATA) [Bicycle Compound Number 93 (TATA scaffold), ACPLVNPLCLHPG(2Nal)SCRGQ] | 228 nM |
| ACGFMGLEPCELFCMPK (linker 2-10-14 via TATA (inferred)) [Bicycle Compound Number 47 (TATA scaffold), ACGFMGLEPCELFCMPK] | 185 nM |
| ACPLVNPLCNLPGWTCA (linker 2-9-16 via TATA (inferred)) [Bicycle Compound Number 56 (TATA scaffold), ACPLVNPLCNLPGWTCA] | 184 nM |
| ACPLVNPLCLMTGWSCA (linker 2-9-16 via TATA (inferred)) [Bicycle Compound Number 61 (TATA scaffold), ACPLVNPLCLMTGWSCA] | 242 nM |
| ACPDWGKYCAYPDTICA (linker 2-9-16 via TATA) [Bicycle Compound Number 36 (TATA scaffold), ACPDWGKYCAYPDTICA] | 160 nM |
| ACPLVNPLCLHPGWTCA (linker 2-9-16 via TATA (inferred)) [Bicycle Compound Number 64 (TATA scaffold), ACPLVNPLCLHPGWTCA] | 30 nM |
| ACTKPTGFCAYPDTICA (linker 2-9-16 via TATA) [Bicycle Compound Number 33 (TATA scaffold), ACTKPTGFCAYPDTICA] | 268 nM |
| ACGFMGLEPCVTYCA (linker 2-10-14 via TATA) [Bicycle Compound Number 43 (TATA scaffold), ACGFMGLEPCVTYCA] | 234 nM |
| ACPLVNPLCLHPG[2Nal]TCLHG (linker 2-9-16 via TATA) [Bicycle Compound Number 79 (TATA scaffold), ACPLVNPLCLHPG(2Nal)TCLHG] | 162 nM |
| ACRNWGMYCAYPDTICA (linker 2-9-16 via TATA) [Bicycle Compound Number 35 (TATA scaffold), ACRNWGMYCAYPDTICA] | 282 nM |
| ACQSCWAYPDTYCA (linker 2-5-13 via TATA) [Bicycle Compound Number 39 (TATA scaffold), ACQSCWAYPDTYCA] | 321 nM |
| ACRGEWGYCAYPDTICA (linker 2-9-16 via TATA) [Bicycle Compound Number 34 (TATA scaffold), ACRGEWGYCAYPDTICA] | 348 nM |
| ACSSCWAYPDSVCA (linker 2-5-13 via TATA) [Bicycle Compound Number 38 (TATA scaffold), ACSSCWAYPDSVCA] | 400 nM |
| ACVPDRRCAFRDVCLTG (linker 2-8-14 via TATA) [Bicycle Compound Number 28 (TATA scaffold), ACVPDRRCAFRDVCLTG] | 1700 nM |
| RPACPLVNPLCLHPGWTCA (linker 4-11-18 via TATA) [Bicycle Compound Number 70 (TATA scaffold), RPACPLVNPLCLHPGWTCA] | 10.1 nM |
| ACGFMGLEPCELFCA (linker 2-10-14 via TATA (inferred)) [Bicycle Compound Number 46 (TATA scaffold), ACGFMGLEPCELFCA] | 81.7 nM |
| ACGFMGLEPCETFCA (linker 2-10-14 via TATA) [Bicycle Compound Number 40 (TATA scaffold), ACGFMGLEPCETFCA] | 188 nM |
| ACGFMGLEPCEMVCA (linker 2-10-14 via TATA) [Bicycle Compound Number 42 (TATA scaffold), ACGFMGLEPCEMVCA] | 320 nM |

Results, then the binder that gave them:

| Ki | Binder |
| --- | --- |
| 159 nM | ACVPDRRCAFQDVCDHE (linker 2-8-14 via TATA) [Bicycle Compound Number 27 (TATA scaffold), ACVPDRRCAFQDVCDHE] |
| 155 nM | ACGFMGLVPCEVHCA (linker 2-10-14 via TATA) [Bicycle Compound Number 41 (TATA scaffold), ACGFMGLVPCEVHCA] |
| 144 nM | ACGFMGLEPCELYCAHT (linker 2-10-14 via TATA (inferred)) [Bicycle Compound Number 49 (TATA scaffold), ACGFMGLEPCELYCAHT] |
| 142 nM | ACGFMGLVPCNVFCA (linker 2-10-14 via TATA (inferred)) [Bicycle Compound Number 45 (TATA scaffold), ACGFMGLVPCNVFCA] |
| 140 nM | ACGFMGLEPCEMYCA (linker 2-10-14 via TATA (inferred)) [Bicycle Compound Number 50 (TATA scaffold), ACGFMGLEPCEMYCA] |
| 130 nM | ETVCLPDSRCAYMNVCA (linker 4-10-16 via TATA) [Bicycle Compound Number 23 (TATA scaffold), ETVCLPDSRCAYMNVCA] |
| 127 nM | ACGFMGLEPCELVCA (linker 2-10-14 via TATA) [Bicycle Compound Number 44 (TATA scaffold), ACGFMGLEPCELVCA] |
| 115 nM | ACPLVNPLCLTSGWKCA (linker 2-9-16 via TATA (inferred)) [Bicycle Compound Number 52 (TATA scaffold), ACPLVNPLCLTSGWKCA] |
| 114 nM | ACPLVNPLCLMPGWGCA (linker 2-9-16 via TATA (inferred)) [Bicycle Compound Number 59 (TATA scaffold), ACPLVNPLCLMPGWGCA] |
| 97.3 nM | ACVPDRRCAFENVCVDH (linker 2-8-14 via TATA) [Bicycle Compound Number 25 (TATA scaffold), ACVPDRRCAFENVCVDH] |
| 96.2 nM | ACPLVNPLCMIGNWTCA (linker 2-9-16 via TATA (inferred)) [Bicycle Compound Number 60 (TATA scaffold), ACPLVNPLCMIGNWTCA] |
| 84.4 nM | ACGFMGLVPCELYCADN (linker 2-10-14 via TATA (inferred)) [Bicycle Compound Number 51 (TATA scaffold), ACGFMGLVPCELYCADN] |
| 67.1 nM | ACPLVNPLCMMGGWKCA (linker 2-9-16 via TATA (inferred)) [Bicycle Compound Number 62 (TATA scaffold), ACPLVNPLCMMGGWKCA] |
| 62.1 nM | HSGCRPDPRCAYMNVCA (linker 4-10-16 via TATA) [Bicycle Compound Number 21 (TATA scaffold), HSGCRPDPRCAYMNVCA] |
| 59 nM | ACPLVNPLCLYGSWKCA (linker 2-9-16 via TATA (inferred)) [Bicycle Compound Number 63 (TATA scaffold), ACPLVNPLCLYGSWKCA] |
| 56.1 nM | ACPLVNPLCLHPGWSCA (linker 2-9-16 via TATA) [Bicycle Compound Number 86 (TATA scaffold), ACPLVNPLCLHPGWSCA] |

| Ki | Binder |
| --- | --- |
| 53.9 nM | ACPLVNPLCLEPGWTCA (linker 2-9-16 via TATA) [Bicycle Compound Number 84 (TATA scaffold), ACPLVNPLCLEPGWTCA] |
| 46.2 nM | ACPLVNPLCLAPGWTCA (linker 2-9-16 via TATA) [Bicycle Compound Number 82 (TATA scaffold), ACPLVNPLCLAPGWTCA] |
| 38.4 nM | ACPLVNPLCLLDGWTCA (linker 2-9-16 via TATA (inferred)) [Bicycle Compound Number 58 (TATA scaffold), ACPLVNPLCLLDGWTCA] |
| 35.4 nM | ACPLVNPLCLVPGWSCA (linker 2-9-16 via TATA (inferred)) [Bicycle Compound Number 57 (TATA scaffold), ACPLVNPLCLVPGWSCA] |
| 20.6 nM | ACPLVNPLCLHPGWRCA (linker 2-9-16 via TATA (inferred)) [Bicycle Compound Number 55 (TATA scaffold), ACPLVNPLCLHPGWRCA] |
| 20 nM | ACPMVNPLCLHPGWTCA (linker 2-9-16 via TATA) [Bicycle Compound Number 97 (TATA scaffold), ACPMVNPLCLHPGWTCA] |
| 17.5 nM | AXDCPLVNPLCLHPGWTCAXXXXXXK (N-terminal acetyl; X2 = HArg (homoarginine); X at 20-25 = Sar; K26 = D-Lys; 3 Cys thioether-linked to TATA scaffold) [Bicycle Compound Number 69 (TATA scaffold), Ac-A(HArg)DCPLVNPLCLHPGWTCA-Sar6-(D-K)] |
| 15.4 nM | ACPMVNPLCLHPGWICA (linker 2-9-16 via TATA (inferred)) [Bicycle Compound Number 53 (TATA scaffold), ACPMVNPLCLHPGWICA] |
| 15.2 nM | ACPLVNPLCLHPGWICA (linker 2-9-16 via TATA (inferred)) [Bicycle Compound Number 54 (TATA scaffold), ACPLVNPLCLHPGWICA] |
| 13.2 nM | ACPLVNPLCLTPGWTCTNT (linker 2-9-16 via TATA) [Bicycle Compound Number 94 (TATA scaffold), ACPLVNPLCLTPGWTCTNT] |
| 11.1 nM | RPPCPLVNPLCLHPGWTCA (linker 4-11-18 via TATA) [Bicycle Compound Number 71 (TATA scaffold), RPPCPLVNPLCLHPGWTCA] |
| 10.9 nM | ACPLVNPLCLEPGWTCAKR (linker 2-9-16 via TATA) [Bicycle Compound Number 85 (TATA scaffold), ACPLVNPLCLEPGWTCAKR] |
| 9.8 nM | TPRCPLVNPLCLMPGWTCA (linker 4-11-18 via TATA) [Bicycle Compound Number 81 (TATA scaffold), TPRCPLVNPLCLMPGWTCA] |
| 2.48 nM | XXXXXXXXXXXACPLVNPLCLHPGWTCLHG (N-terminal (β-Ala)-Sar10; 3 Cys thioether-linked to TATA scaffold) [Bicycle Compound Number 75 (TATA scaffold), (β-Ala)-Sar10-ACPLVNPLCLHPGWTCLHG] |
| 1.76 nM | Ac-CPLVNPLCLHPGWTCLHG (linker 1-8-15 via TATA) [Bicycle Compound Number 74 (TATA scaffold), Ac-CPLVNPLCLHPGWTCLHG] |
| 1.64 nM | Ac-CPLVNPLCLHPGWSCRGQ (linker 1-8-15 via TATA) [Bicycle Compound Number 88 (TATA scaffold), Ac-CPLVNPLCLHPGWSCRGQ] |
